Data: paper PMC8800115

Columns and labels:
K63-linked diubiquitin = K63-linked diubiquitin (UniProt P0CG48); experiment: ITC; MicroCal iTC200; proteins dialysed in 20 mM Hepes pH 7.5, 150 mM NaCl, 200 μM TCEP; 2-μl injections; who was in the cell is not given; ranges of Kd are from fits with N fixed to 1 (first value: active concentration in the cell varied, second: in the syringe); Kd of S470R and E467R/S470R called apparent
[1] = biological target: K63-linked tetraubiquitin (UniProt P0CG48); experiment: as above

- Kd (K63-linked diubiquitin): 8.7 to 10.4 µM
- stoichiometry N (ASCC2 CUE domain per K63Ub2) (K63-linked diubiquitin): 1
- stoichiometry N (ASCC2 CUE domains per K63Ub4) [1]: 2
Substance: ASCC2 CUE domain (construct of the ITC experiments of Figure 2) (from UniProt Q9H1I8 463-525) (domain or fragment)
